Data taken from PMC10491024 (Cell reports, 2023).

T1: FP8v1-rTTHC (HIV-1, fusion peptide 512-519 (BG505 …))
T1 construct: also called fusion peptide
T1 chain: AVGIGAVF

T2: FP7v1-rTTHC (HIV-1, fusion peptide 512-518)
T2 construct: also called shorter peptides
T2 chain: AVGIGAV

T3: FP6v1-rTTHC (HIV-1, fusion peptide 512-517)
T3 construct: also called shorter peptides
T3 chain: AVGIGA

B1: N751-2C06.01 IgG (antibody, V domains shown)
VH: EVQLVESGGGLVQPGGSLRLSCSASGFTFSSYAMHWVRQAPGKGLEYVSAISGNGDSTYYADSVRGRFTISRDNSKNTLYLQMSSLRAEDTAVYYCVKQAAYCTRTSCYYFDYWGQGTLVTVSS
VL: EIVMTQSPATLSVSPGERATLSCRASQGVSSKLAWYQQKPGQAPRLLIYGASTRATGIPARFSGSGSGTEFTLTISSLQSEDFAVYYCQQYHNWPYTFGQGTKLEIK
B2: N751-2C09.01 IgG (antibody, V domains shown)
VH: EVQLVESGEGLVQPGGSLRLSCAASGFTFSSHAMHWVRQAPGKGLEYVSAISSEGGSTYYADSVRGRFIISRDNSKNTLYLQMGSLRAEDMAVYYCARVTGDYNWYFDLWGRGTLVTVSS
VL: EIVMTQSPATLSVSPGERATLSCRASQGVSSNLAWYQQKPGQAPRLLIHGASTRATGSPARFSGSGSGTEFTLTISSLQSEDFAVYSCQQYHNWPWTFGQGTKVEIK

Legend:
Settings in all cases: both partners purified
[1] = target: T1, FP8v1-rTTHC; test: ELISA
[2] = target: T2, FP7v1-rTTHC; test: ELISA; plates coated with 2 μg/mL fusion peptide-rTTHC; 2C06 or 2C09 antibody serially diluted from 2 μg/mL, 1 h 37°C; anti-human IgG-HRP
[3] = target: T3, FP6v1-rTTHC; test: as above

| Binder | binding result [1] | binding result [2] | binding result [3] |
| --- | --- | --- | --- |
| B1 | binds | – | – |
| B2 | binds | binds | binds |
